{"source": "paper PMC6332795", "about": "(Theranostics, 2019)", "key": {"[1]": {"molecular_target": "B/Florida/4/2006 HA (recombinant HA protein) (Influenza B virus (B/Florida/4/2006), UniProt E1TVD5, strain, biotin (EZ-Link Sulfo-NHS-LC-Biotin kit))", "assay": "BLI"}, "[2]": {"molecular_target": "T1, hemagglutinin (HA) of influenza B virus B/Lee/1940, on purified virus (influenza B virus (B/Lee/1940))", "T1 chain": "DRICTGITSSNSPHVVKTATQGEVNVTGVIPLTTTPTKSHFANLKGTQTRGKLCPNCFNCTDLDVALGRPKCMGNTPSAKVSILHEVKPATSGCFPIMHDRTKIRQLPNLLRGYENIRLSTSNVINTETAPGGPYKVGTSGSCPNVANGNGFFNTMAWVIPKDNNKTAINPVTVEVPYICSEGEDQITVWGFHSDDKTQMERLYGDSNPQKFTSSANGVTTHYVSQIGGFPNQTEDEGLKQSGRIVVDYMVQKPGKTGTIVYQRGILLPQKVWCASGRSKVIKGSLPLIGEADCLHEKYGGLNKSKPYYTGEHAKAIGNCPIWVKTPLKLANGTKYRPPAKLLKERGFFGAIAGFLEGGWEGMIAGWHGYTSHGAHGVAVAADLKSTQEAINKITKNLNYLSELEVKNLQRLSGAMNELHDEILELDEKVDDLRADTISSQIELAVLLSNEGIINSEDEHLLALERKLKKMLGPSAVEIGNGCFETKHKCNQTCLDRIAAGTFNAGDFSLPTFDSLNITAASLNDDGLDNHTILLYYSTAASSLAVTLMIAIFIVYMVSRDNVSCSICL", "assay": "ELISA"}}}
{"binder": "C7G6-IgM (antibody, V domains shown) VH: EVQLQQSGPELVKPGASVKISCKASGYTFTDYNMHWVKQSLGKSLEWIGYIYPNNGGTGYNQKFESKATLTADNSSSTAYMELRTLTSEDSAVYYCVRSGAYYFNYLVPYFDYWGQGTTLTVSS VL: NIVLTQSPASLAVSLGQRGTISCRASESVDIYGNSFMHWYQQKPGQPPKLLIYLASKLECGVCARFNGSGCRTDFTLAIDPVEGDDGATYYCQQNYEDPWTFGGGTKLEIK", "values": [{"measurement": "Kd", "setting": "[1]", "result": 0.58, "unit": "nM"}, {"measurement": "binding result", "setting": "[2]", "result": "binds"}]}
{"binder": "C7G6-IgG (antibody, V domains shown) VH: EVQLQQSGPELVKPGASVKISCKASGYTFTDYNMHWVKQSLGKSLEWIGYIYPNNGGTGYNQKFESKATLTADNSSSTAYMELRTLTSEDSAVYYCVRSGAYYFNYLVPYFDYWGQGTTLTVSS VL: NIVLTQSPASLAVSLGQRGTISCRASESVDIYGNSFMHWYQQKPGQPPKLLIYLASKLECGVCARFNGSGCRTDFTLAIDPVEGDDGATYYCQQNYEDPWTFGGGTKLEIK", "values": [{"measurement": "Kd", "setting": "[1]", "result": 24.7, "unit": "nM"}, {"measurement": "binding result", "setting": "[2]", "result": "binds"}]}
{"binder": "C11B10 (antibody, V domains shown) VH: EVQLQQSGPELVKPGASVKISCKASGYTFTGYNMHWVKQSHGKSLEWIGKIYPNNGVTGYNQEFRSKATLTVDNSSSTAYMELRSLTSEDSAIYFCVRSGAYYVNYLVPYFDYWGQGTTLTVSS VL: NIVLTQSPASLAVSPGQRATISCRASESIDIYGNSFMHWYQKKPGQPPKLLIYRASNLESGVPARFNGSGSRTDFTLTIDPVEGDDGATYYCQQNYEDPWTFGGGTKLEIK", "values": [{"measurement": "binding result", "setting": "[2]", "result": "no binding"}]}
{"binder": "C10H10-IgM (antibody, V domains shown) VH: EIQLQQSGPELVKPGASLKVSCKGFGYSFTDYKMYWVKQSHGKSLEWIGYIDPYNGGMRYNQKFKVKATLTVDMSSNTTFMHLNSLTFEDFAVYYCARGYGKNYAMEYWGQGTSVTVSS VL: NIVLTQSPASLAVSLGQRATISCRASESVDTYGQSFMHWYQQKPGQPPKLLIHLASNLESGVPARFNGSGSRTDFTLTIDPVEADDAATYYCQQNNEDPYTFGGGTKLEIK", "values": [{"measurement": "binding result", "setting": "[2]", "result": "no binding"}]}
{"binder": "C10H10-IgG (antibody, V domains shown) VH: EIQLQQSGPELVKPGASLKVSCKGFGYSFTDYKMYWVKQSHGKSLEWIGYIDPYNGGMRYNQKFKVKATLTVDMSSNTTFMHLNSLTFEDFAVYYCARGYGKNYAMEYWGQGTSVTVSS VL: NIVLTQSPASLAVSLGQRATISCRASESVDTYGQSFMHWYQQKPGQPPKLLIHLASNLESGVPARFNGSGSRTDFTLTIDPVEADDAATYYCQQNNEDPYTFGGGTKLEIK", "values": [{"measurement": "binding result", "setting": "[2]", "result": "no binding"}]}
{"binder": "C3G10-IgM (antibody, V domains shown) VH: EVQLQESGAELVKPGASVKLSCTASGFDIKDTYIHWVKQKPEKGLEWIGRIDPADGDTQSDPRFQGKATITSDTSSNTTYLHLSSLTSEDTAVYYCAKGGWYFDVWGAGTTVTVSS VL: HIVLTQSPASLAVSLGQRGTISCRASESVDSYGNSFMHWYQQRPGQPPKLLIYLASKLKCGVPARFSGSGSRTDFTLTNDPLEGGDGATYYCQQNNEVPRTFGGGTKLEIK", "values": [{"measurement": "binding result", "setting": "[2]", "result": "binds"}]}
{"binder": "C3G10-IgG (antibody, V domains shown) VH: EVQLQESGAELVKPGASVKLSCTASGFDIKDTYIHWVKQKPEKGLEWIGRIDPADGDTQSDPRFQGKATITSDTSSNTTYLHLSSLTSEDTAVYYCAKGGWYFDVWGAGTTVTVSS VL: HIVLTQSPASLAVSLGQRGTISCRASESVDSYGNSFMHWYQQRPGQPPKLLIYLASKLKCGVPARFSGSGSRTDFTLTNDPLEGGDGATYYCQQNNEVPRTFGGGTKLEIK", "values": [{"measurement": "binding result", "setting": "[2]", "result": "binds"}]}
